Literature values in PMC3667765.

Target: E-cadherin (Homo sapiens) (UniProt P12830)
Chain of UniProt P12830 (P12830 155-709): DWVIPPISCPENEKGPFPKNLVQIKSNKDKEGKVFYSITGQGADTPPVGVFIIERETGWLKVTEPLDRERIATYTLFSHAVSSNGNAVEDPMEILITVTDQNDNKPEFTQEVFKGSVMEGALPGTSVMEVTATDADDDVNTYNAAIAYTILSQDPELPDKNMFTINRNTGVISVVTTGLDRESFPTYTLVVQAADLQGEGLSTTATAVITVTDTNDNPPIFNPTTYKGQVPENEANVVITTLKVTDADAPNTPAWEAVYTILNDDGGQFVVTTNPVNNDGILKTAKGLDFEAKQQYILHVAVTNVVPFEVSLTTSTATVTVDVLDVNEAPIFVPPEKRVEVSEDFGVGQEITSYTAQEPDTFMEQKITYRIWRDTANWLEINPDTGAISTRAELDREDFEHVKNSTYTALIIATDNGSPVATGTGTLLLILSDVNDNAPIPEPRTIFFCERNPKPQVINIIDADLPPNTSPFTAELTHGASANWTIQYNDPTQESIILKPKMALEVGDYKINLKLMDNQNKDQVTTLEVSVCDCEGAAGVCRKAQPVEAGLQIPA

**Q.** With Internalin A (from UniProt P0DJM0) as the substance, how does the Kd read?
**A.** 8 µM
